From patent publication US20100035363A1 (TIBOTEC PHARMACEUTICALS, published 2010)

Tests used:
[1] = target: T1, biotin-labeled RSV-IQN51 (Respiratory Syncytial Virus (F1 part), biotin label (position not stated in the example); captured on streptavidin-allophycocyanin in the assay); assay: time-resolved FRET competition, IQN51-APC/C39-Eu assay; competitor C39-Eu
T1 construct: Synthetic peptide; In the assay it was pre-mixed with streptavidin-APC (final 100 nM IQN51-biotin, 10 nM streptavidin-APC); also called IQN51-biotin; IQN51-APC

[2] = target: T2, biotin-labeled RSV-IQN57 (Respiratory Syncytial Virus (F1 part), biotin label (position not stated in the example); captured on streptavidin-allophycocyanin in the assay); assay: time-resolved FRET competition, IQN57-APC/C45-Eu assay; competitor C45-Eu
T2 construct: Synthetic peptide; In the assay it was pre-mixed with streptavidin-APC (final 100 nM IQN57-biotin, 10 nM streptavidin-APC); also called IQN57-biotin; IQN57-APC
T2 peptide: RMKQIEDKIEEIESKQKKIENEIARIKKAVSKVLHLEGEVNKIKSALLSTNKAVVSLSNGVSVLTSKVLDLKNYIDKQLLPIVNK

Question: What does the source list for NFYDPLVFPSDEFDASISQVNEKINQSLAFIRKSDELLHNVNAGK [RSV-C45]?
Answer: IC50 [1]: 76 nM; IC50 [2]: 74 nM

Question: Which results are given for VFPSDEFDASISQVNEKINQSLAFIRKSDELLHNVNAGK [RSV-C39]?
Answer: IC50 [1]: 76 nM; IC50 [2]: 64 nM
